Laboratory results from PMC4505335, “Selective targeting of PPARγ by the natural product chelerythrine with a unique binding mode and improved antidiabetic potency” (Scientific Reports, 2015).
Blank lines part the entries; values can stand above or below the molecule they belong to. Where no end group is shown, it is not given here. The star is where a group is joined. Biotin = O=C1N[C@H]2[C@H](CS[C@H]2CCCCC(=O)*)N1

Tests used:
[1] = molecular target: T1, PPARγ (Homo sapiens, UniProt P37231); test: crystal structure at […] Å; Lantha TR-FRET competitive binding; AlphaScreen
T1 construct: gene PPARG; no SRC1 peptide; In-house His6-LBD 206-477 (E. coli) used for crystal and kinase assay
T1 sequence (P37231 234-505 limits assumed): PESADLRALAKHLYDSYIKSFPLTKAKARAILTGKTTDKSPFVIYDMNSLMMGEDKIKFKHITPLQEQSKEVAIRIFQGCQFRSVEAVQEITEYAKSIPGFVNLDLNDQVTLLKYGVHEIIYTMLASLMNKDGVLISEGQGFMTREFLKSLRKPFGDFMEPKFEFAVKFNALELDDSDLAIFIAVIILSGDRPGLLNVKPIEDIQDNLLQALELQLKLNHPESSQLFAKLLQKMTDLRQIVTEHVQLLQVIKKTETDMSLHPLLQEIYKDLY

[2] = molecular target: T2, Human PPARγ LBD (residues 206–477) (human, UniProt P37231-2 206-477); test: AlphaScreen or HTRF; hexahistidine detection kit; about 20–40 nmol/l His6-PPARγ LBD and 20 nmol/l biotinylated peptide, 5 μg/ml donor and acceptor beads; 50 mmol/l MOPS, 50 mmol/l NaF, 0.05 mmol/l CHAPS, 0.1 mg/ml BSA, pH 7.4; with rosiglitazone (1 μmol/l, and dose curves); details: both partners purified
T2 construct: The tag is detected in the AlphaScreen (hexahistidine detection kit); also called NR1C3; source: E. coli BL21(DE3), purified (Ni HiTrap HP, SP-Sepharose); not shown: His6, N-terminal, kept
T2 sequence (looked up): T1 sequence (P37231 234-505 limits assumed)

[3] = molecular target: T2, Human PPARγ LBD (residues 206–477); test: AlphaScreen or HTRF; hexahistidine detection kit; about 20–40 nmol/l His6-PPARγ LBD and 20 nmol/l biotinylated peptide, 5 μg/ml donor and acceptor beads; 50 mmol/l MOPS, 50 mmol/l NaF, 0.05 mmol/l CHAPS, 0.1 mg/ml BSA, pH 7.4; with chelerythrine (5 μmol/l, and dose curves); details: both partners purified

Molecule: COc1ccc2c(c[n+](C)c3c4cc5c(cc4ccc23)OCO5)c1OC [CHE, chelerythrine]
IC50 [1]: 566 nM

Molecule: Biotin-SPSSHSSLTERHKILHRLLQEGSP [SRC1 coactivator peptide, N-terminally biotinylated]
binding result [2]: binds

More lines, now with the values ahead:

binding result [3]: binds
B1: NCoR-2, a corepressor peptide from NCoR, N-terminally biotinylated (peptide)
peptide: Biotin-GHSFADPASNLGLEDIIRKALMGSF
notes: second corepressor motif peptide from NCoR (nuclear receptor corepressor 1; not the gene NCOR2/SMRT); also called NCoR-2 corepressor

binding result [2]: binds
Molecule: Biotin-QEPVSPKKKENALLRYLLDKDDTKD [SRC2 coactivator peptide, N-terminally biotinylated]
